Source: US20250084172A1 (23ANDME, published 2025)
Substitutions are numbered along the chain they refer to. Numbers in names are those of the source. Blank lines part the entries; values can stand above or below the binder they belong to.

How the values were obtained:
[1] = target: T1, human soluble ULBP6 haplotype 02 (hULBP6_02) (human, UniProt Q5VY80 26-218); experiment: SPR (BIACORE 8K, 37 C); antibody captured on Protein A, soluble ULBP injected;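 note: ligand injected as threefold dilution series in HBS-P (highest 10 or 50 nM), reference-cell and buffer-subtracted sensorgrams fitted with a 1:1 Langmuir model for on and off rates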
T1 construct: also called sULBP6_02
T1 chain: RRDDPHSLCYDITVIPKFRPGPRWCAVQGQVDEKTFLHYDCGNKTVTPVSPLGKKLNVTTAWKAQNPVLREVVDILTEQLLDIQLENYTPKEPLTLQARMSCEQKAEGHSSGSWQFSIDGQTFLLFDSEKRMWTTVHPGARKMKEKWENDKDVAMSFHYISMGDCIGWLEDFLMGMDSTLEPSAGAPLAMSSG

[2] = target: T2, cynomolgus soluble ULBP2/6 (cULBP2/6) (cynomolgus, UniProt Q5VY80 28-217 (human entry), limits assumed); experiment: as above
T2 construct: also called cyno ULBP6; Cyno-cULBP2/6
T2 chain: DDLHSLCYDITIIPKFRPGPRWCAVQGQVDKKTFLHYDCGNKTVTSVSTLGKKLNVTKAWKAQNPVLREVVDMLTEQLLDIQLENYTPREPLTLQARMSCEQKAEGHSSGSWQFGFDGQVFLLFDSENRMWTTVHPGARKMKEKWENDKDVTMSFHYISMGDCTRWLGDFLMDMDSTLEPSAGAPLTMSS

[3] = target: T3, cynomolgus soluble ULBP5 (cULBP5) (cynomolgus); experiment: as above
T3 construct: also called Cyno-cULBP5
T3 chain: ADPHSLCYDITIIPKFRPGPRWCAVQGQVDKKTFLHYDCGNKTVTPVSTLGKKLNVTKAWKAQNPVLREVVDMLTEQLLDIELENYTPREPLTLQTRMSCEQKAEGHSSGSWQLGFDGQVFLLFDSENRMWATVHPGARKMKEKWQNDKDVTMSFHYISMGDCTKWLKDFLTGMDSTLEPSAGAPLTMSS

[4] = target: T4, human soluble ULBP6 haplotype 01 (hULBP6_01) (human, UniProt Q5VY80 27-218, limits assumed); experiment: as above
T4 construct: also called sULBP6_01
T4 chain: T1 chain with R1G, L81R, T122I

[5] = target: T5, human soluble ULBP2 (hULBP2) (human, UniProt Q9BZM5 26-216); experiment: as above
T5 construct: also called sULBP2
T5 sequence: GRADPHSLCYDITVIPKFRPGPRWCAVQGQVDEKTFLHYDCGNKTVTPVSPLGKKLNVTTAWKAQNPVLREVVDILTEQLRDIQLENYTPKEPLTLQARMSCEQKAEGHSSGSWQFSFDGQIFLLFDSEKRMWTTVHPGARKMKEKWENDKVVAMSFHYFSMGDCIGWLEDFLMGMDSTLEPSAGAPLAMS

[6] = target: T6, cell surface ULBP6_01 on COV644 cells (human, UniProt Q5VY80 27-218); experiment: flow cytometry on COV644 cells, anti-hFc-APC detection, average of 2 replicates
T6 construct: whole, on cells; also called cell surface ULBP6 (COV644)
T6 chain: T1 chain with R1G, L81R, T122I

[7] = target: T7, cell surface ULBP6_02 on PANC02.13 cells (human, UniProt Q5VY80 26-218); experiment: flow cytometry on PANC02.13 cells, anti-hFc-APC detection, average of 2 replicates
T7 construct: whole, on cells; also called cell surface ULBP6 (PANC02.13)
T7 chain: T1 chain

[8] = target: T6, cell surface ULBP6_01 on COV644 cells; experiment: flow cytometry; blocking of hNKG2D-mFc binding to COV644 cells, average of 2 replicates
[9] = target: T8, human ULBP6 displayed on M13 phage (ULBP6-HA-pIII) (human, UniProt Q5VY80 26-218); experiment: phage ELISA: plate coated with the antibody, ULBP6 phage titrated in 3-fold steps from 1.0 O.D./mL, HRP anti-M13 detection, O.D. 450
T8 construct: also called ULBP6 phage; not shown: M13 minor coat protein pIII
T8 sequence: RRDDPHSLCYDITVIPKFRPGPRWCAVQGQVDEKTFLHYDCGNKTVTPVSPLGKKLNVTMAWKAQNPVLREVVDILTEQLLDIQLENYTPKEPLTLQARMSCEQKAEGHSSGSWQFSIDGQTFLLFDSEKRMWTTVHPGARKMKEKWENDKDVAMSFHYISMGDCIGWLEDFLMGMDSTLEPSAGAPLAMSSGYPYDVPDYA

[10] = target: T1, human soluble ULBP6 haplotype 02 …; experiment: SPR (BIACORE);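 note: soluble human and cynomolgus NKG2D ligands injected as analytes in 3-fold dilution series spanning 0.01 to 50 nM at 37 °C, reference-subtracted sensorgrams fitted to a 1:1 Langmuir model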
[11] = target: T2, cynomolgus soluble ULBP2/6 (cULBP2/6); experiment: SPR (BIACORE);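 note: soluble human and cynomolgus NKG2D ligands injected as analytes in 3-fold dilution series spanning 0.01 to 50 nM at 37 °C, reference-subtracted sensorgrams fitted to a 1:1 Langmuir model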
[12] = target: T3, cynomolgus soluble ULBP5 (cULBP5); experiment: SPR (BIACORE);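 note: soluble human and cynomolgus NKG2D ligands injected as analytes in 3-fold dilution series spanning 0.01 to 50 nM at 37 °C, reference-subtracted sensorgrams fitted to a 1:1 Langmuir model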
[13] = target: T4, human soluble ULBP6 haplotype 01 …; experiment: SPR (BIACORE);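 note: soluble human and cynomolgus NKG2D ligands injected as analytes in 3-fold dilution series spanning 0.01 to 50 nM at 37 °C, reference-subtracted sensorgrams fitted to a 1:1 Langmuir model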
[14] = target: T9, human soluble ULBP5 (hULBP5) (human, UniProt Q6H3X3 26-218); experiment: SPR (BIACORE)
T9 construct: also called sULBP5
T9 sequence: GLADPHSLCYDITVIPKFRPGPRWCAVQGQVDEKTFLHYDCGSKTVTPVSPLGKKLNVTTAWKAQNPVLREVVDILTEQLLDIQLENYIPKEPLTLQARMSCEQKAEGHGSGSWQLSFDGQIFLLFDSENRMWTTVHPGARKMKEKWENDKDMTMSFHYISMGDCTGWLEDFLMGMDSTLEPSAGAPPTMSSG

[15] = target: T5, human soluble ULBP2 (hULBP2); experiment: SPR (BIACORE)
[16] = target: T4, human soluble ULBP6 haplotype 01 …; experiment: blocking ELISA; hNKG2D coated, antibody titrated with biotinylated hULBP6_01
[17] = target: T1, human soluble ULBP6 haplotype 02 …; experiment: blocking ELISA; hNKG2D coated, antibody titrated with biotinylated hULBP6_02
[18] = target: hNKG2D-Fc (human NKG2D 78-216 with C-terminal long huFc-Flag tag) (human); experiment: SPR (BIACORE 8K, 37 C); hNKG2D-Fc captured on Protein A, soluble ligand injected
Sequence of hNKG2D-Fc (human NKG2D 78-216 with C-terminal long huFc-Flag tag) (human) (chain, as listed by the source limits assumed): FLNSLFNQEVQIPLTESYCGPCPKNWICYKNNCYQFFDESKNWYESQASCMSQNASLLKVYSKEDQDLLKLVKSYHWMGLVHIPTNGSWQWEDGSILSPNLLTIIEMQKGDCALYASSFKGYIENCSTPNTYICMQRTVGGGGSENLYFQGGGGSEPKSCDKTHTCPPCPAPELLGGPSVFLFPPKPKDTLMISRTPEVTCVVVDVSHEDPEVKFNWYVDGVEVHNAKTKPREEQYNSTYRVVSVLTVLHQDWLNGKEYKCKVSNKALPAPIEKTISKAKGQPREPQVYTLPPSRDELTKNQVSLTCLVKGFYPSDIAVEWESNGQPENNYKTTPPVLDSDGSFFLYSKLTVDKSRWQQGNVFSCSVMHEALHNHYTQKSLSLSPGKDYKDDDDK

Kd [1]: 1.31 nM | koff [1]: 0.00215 s⁻¹ | kon [1]: 1.64e+06 M⁻¹ s⁻¹ | Kd [2]: 0.151 nM | koff [2]: 0.00133 s⁻¹ | kon [2]: 8.84e+06 M⁻¹ s⁻¹ | Kd [3]: 0.735 nM | koff [3]: 0.00105 s⁻¹ | kon [3]: 1.43e+06 M⁻¹ s⁻¹ | Kd [4]: 0.422 nM | koff [4]: 0.00114 s⁻¹ | kon [4]: 2.69e+06 M⁻¹ s⁻¹ | Kd [5]: 0.642 nM | koff [5]: 0.00148 s⁻¹ | kon [5]: 2.31e+06 M⁻¹ s⁻¹ | EC50 [6]: 1.4 nM | EC50 [7]: 0.72 nM | IC50 [8]: 0.22 nM | EC50 (read off the curve) [9]: ~0.006 O.D. (phage)
B1: humanized 1D4 (h1D4), Fc version not stated (antibody, V domains shown)
VH: EIQLVQSGSELKKPGASVKVSCKASGYTFTEYPIHWVRQAPGQGFEWMGMIYTDTGEPTHAEEFKGRFVFSLDTSVSTAYLQISSLKAEDTAVYFCVRWYDGSSYIMDYWGQGTTVTVSS
VL: DIQMTQSPSSLSASVGDRVTITCKASQDINSYLSWFQQKPGKSPKTLIYRANRLVDGVPSRFSGSGSGQDYTFTISSLQPEDIATYYCLQYDEFPLTFGGGTKVEIK
notes: Recombinant humanized antibody, hIgG1 backbone with kappa light chain; also called hiD4; hu1D4

Kd [1]: 0.939 nM | koff [1]: 0.00664 s⁻¹ | kon [1]: 7.07e+06 M⁻¹ s⁻¹ | Kd [2]: 0.415 nM | koff [2]: 0.0115 s⁻¹ | kon [2]: 2.77e+07 M⁻¹ s⁻¹ | Kd [3]: 1.51 nM | koff [3]: 0.00922 s⁻¹ | kon [3]: 6.1e+06 M⁻¹ s⁻¹ | Kd [4]: 5.24 nM | koff [4]: 0.0246 s⁻¹ | kon [4]: 4.7e+06 M⁻¹ s⁻¹ | Kd [5]: 10.7 nM | koff [5]: 0.0386 s⁻¹ | kon [5]: 3.62e+06 M⁻¹ s⁻¹ | EC50 [6]: 0.36 nM | EC50 [7]: 0.44 nM | IC50 [8]: 0.2 nM | EC50 (read off the curve) [9]: ~0.006 O.D. (phage)
B2: humanized 6E1 (h6E1), Fc version not stated (antibody, V domains shown)
VH: EVQLVQSGAEVKKPGASVKVSCKASGYTFTNYWMHWMRQAPGQGLEWLGRIHPSDSDTNYNQKFKGRATLTVDKSISTAYMELSRLRSDDTAVYYCAIEGTGKGYFDVWGRGTLVTVSS
VL: B1 VL with N30Y, Y71F, F73L, I83F, Q90H
notes: Recombinant humanized antibody, hIgG1 backbone with kappa light chain; also called hu6E1; PUR3993

Kd [10]: 1.06 nM | Kd [11]: 0.99 nM | Kd [12]: 0.63 nM | Kd [13]: 0.41 nM | Kd [14]: 8.88 nM | Kd [15]: 0.47 nM | IC50 [16]: 7.7 nM | IC50 [17]: 0.265 nM
B3: Humanized 1D4 (h1D4) (E-) (antibody, human IgG1, kappa, N297G, V domains shown)
VH: B1 VH
VL: DIQMTQSPSSLSASVGDRVTITCKASQDINSYLSWFQQKPGKSPKTLIYRANRLVDGVPSRFSGSGSGQDYTFTISSLQPEDIATYYCLQYDEFPLTFGGGTKVEIKR
notes: hIgG1 with N297G (effector negative)

Kd [1]: 0.383 nM | koff [1]: 0.000459 s⁻¹ | kon [1]: 1.2e+06 M⁻¹ s⁻¹ | Kd [2]: 11.4 nM | koff [2]: 0.0045 s⁻¹ | kon [2]: 396000 M⁻¹ s⁻¹ | Kd [3]: 23.9 nM | koff [3]: 0.00333 s⁻¹ | kon [3]: 139000 M⁻¹ s⁻¹ | Kd [4]: 0.331 nM | koff [4]: 0.000492 s⁻¹ | kon [4]: 1.48e+06 M⁻¹ s⁻¹ | Kd [5]: 0.662 nM | koff [5]: 0.000542 s⁻¹ | kon [5]: 819000 M⁻¹ s⁻¹ | EC50 [6]: 1.29 nM | EC50 [7]: 1.28 nM | IC50 [8]: 0.11 nM | EC50 (read off the curve) [9]: ~0.006 O.D. (phage)
B4: humanized 8E11 (h8E11), Fc version not stated (antibody, V domains shown)
VH: EVQLVESGGGLVQPGGSLRLSCAASGFTFRTYGMHWVRQAPGKGLEWVAYISSGSGTIDYADTVKGRFTISRDNAKNSLYLQMNSLRAEDTAVYYCTRQTGAMDYWGQGTLVTVSS
VL: EIVLTQSPATLSLSPGERATLSCSASSSVSYMNWYQQKPGQSPRLWIYGISNLASGVPARFSGSGSGTDFTLTISSLEPEDFAVYYCQQRSSHPLTFGGGTKVEIK
notes: Recombinant humanized antibody, hIgG1 backbone with kappa light chain; also called PUR3926

Kd [10]: 0.68 nM | Kd [11]: 1.76 nM | Kd [12]: 1.03 nM | Kd [13]: 4.38 nM | Kd [14]: 8.7 nM | Kd [15]: 8.91 nM | IC50 [16]: 10.2 nM | IC50 [17]: 0.103 nM
B5: Humanized 6E1 (h6E1) (E-) (antibody, human IgG1, kappa, N297G, V domains shown)
VH: B2 VH
VL: B3 VL with N30Y, Y71F, F73L, I83F, Q90H
notes: as for B3

Kd [18]: 118 nM
B6: human soluble MICB (hMICB) (ligand)
chain: AEPHSLRYNLMVLSQDESVQSGFLAEGHLDGQPFLRYDRQKRRAKPQGQWAEDVLGAKTWDTETEDLTENGQDLRRTLTHIKDQKGGLHSLQEIRVCEIHEDSSTRGSRHFYYDGELFLSQNLETQESTVPQSSRAQTLAMNVTNFWKEDAMKTKTHYRAMQADCLQKLQRYLKSGVAIRRTVPPMVNVTCSEVSEGNITVTCRASSFYPRNITLTWRQDGVSLSHNTQQWGDVLPDGNGTYQTWVATRIRQGEEQRFTCYMEHSGNHGTHPVPSGKVLVLQSQRTD
notes: the printed Uniprot number (29983) looks wrong; also called sMICB
